Measured values: ChEMBL document CHEMBL2074239, “Characterization of uremic toxin transport by organic anion transporters in the kidney” (Kidney Int, 2004)
Each block holds one molecule with its values, some of them ahead of it.

What was measured:
[1] = molecular target: T1, Organic anion transporter 3 (Rattus norvegicus, UniProt Q9R1U7); assay: TP_TRANSPORTER: inhibition of benzylpenicillin uptake in Oat3-expressing HEK293 cells; type: functional, cell-based
T1 sequence (Q9R1U7 whole entry): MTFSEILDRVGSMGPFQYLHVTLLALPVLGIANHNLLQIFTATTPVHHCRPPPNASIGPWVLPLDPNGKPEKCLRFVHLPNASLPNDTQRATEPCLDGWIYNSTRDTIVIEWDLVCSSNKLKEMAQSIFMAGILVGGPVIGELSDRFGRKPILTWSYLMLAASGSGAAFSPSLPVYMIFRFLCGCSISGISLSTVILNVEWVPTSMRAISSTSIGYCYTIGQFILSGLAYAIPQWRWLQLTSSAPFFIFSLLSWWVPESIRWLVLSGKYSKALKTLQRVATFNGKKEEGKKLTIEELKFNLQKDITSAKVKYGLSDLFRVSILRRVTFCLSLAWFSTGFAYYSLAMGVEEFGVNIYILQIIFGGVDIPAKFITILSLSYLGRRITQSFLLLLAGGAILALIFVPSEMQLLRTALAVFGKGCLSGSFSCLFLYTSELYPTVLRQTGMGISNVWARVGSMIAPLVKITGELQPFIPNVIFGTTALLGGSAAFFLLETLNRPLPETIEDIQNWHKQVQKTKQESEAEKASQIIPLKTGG

[2] = molecular target: T2, Organic anion transporter 3 (Homo sapiens, UniProt Q8TCC7); assay: TP_TRANSPORTER: inhibition of benzylpenicillin uptake in OAT3-expressing HEK293 cells; type: functional, cell-based
T2 sequence (Q8TCC7 whole entry): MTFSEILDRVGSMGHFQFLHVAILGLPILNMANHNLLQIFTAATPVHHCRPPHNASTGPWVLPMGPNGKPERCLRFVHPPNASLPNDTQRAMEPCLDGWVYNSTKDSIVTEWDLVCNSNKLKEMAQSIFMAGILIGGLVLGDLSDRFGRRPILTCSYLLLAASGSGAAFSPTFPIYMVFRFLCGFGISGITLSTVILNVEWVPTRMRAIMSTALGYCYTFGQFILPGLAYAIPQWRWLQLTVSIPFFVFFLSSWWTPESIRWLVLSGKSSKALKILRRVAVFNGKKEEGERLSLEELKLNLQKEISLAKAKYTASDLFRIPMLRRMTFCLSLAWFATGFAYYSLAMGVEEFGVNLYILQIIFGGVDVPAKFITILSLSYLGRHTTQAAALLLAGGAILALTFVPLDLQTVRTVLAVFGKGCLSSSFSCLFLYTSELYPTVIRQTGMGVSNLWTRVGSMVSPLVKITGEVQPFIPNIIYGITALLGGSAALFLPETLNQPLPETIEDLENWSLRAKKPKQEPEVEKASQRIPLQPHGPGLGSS

[3] = substrate: CC(=O)Oc1c[nH]c2ccccc12; assay: (§1) TP_TRANSPORTER: uptake in OAT1-expressing HEK293 cell; type: functional, cell-based
[4] = substrate: CCCc1oc(CCC(=O)O)c(C(=O)O)c1C; assay: as §1; type: functional, cell-based
[5] = substrate: O=S(=O)(O)Oc1c[nH]c2ccccc12; assay: (§2) TP_TRANSPORTER: uptake in OAT3-expressing HEK293 cells; type: functional, cell-based
[6] = substrate: CCCc1oc(CCC(=O)O)c(C(=O)O)c1C; assay: as §2; type: functional, cell-based
[7] = substrate: O=S(=O)(O)Oc1c[nH]c2ccccc12; assay: (§3) TP_TRANSPORTER: uptake in Oat3-expressing HEK293 cells; type: functional, cell-based
[8] = substrate: CCCc1oc(CCC(=O)O)c(C(=O)O)c1C; assay: as §3; type: functional, cell-based
[9] = substrate: O=C(O)CNC(=O)c1ccccc1; assay: cells, lysate or membranes named

- Ki [1]: 19 µM
- Ki [2]: 31 µM
Molecule: O=C(O)CNC(=O)c1ccccc1 [HIPPURIC ACID]

- Ki [1]: 582 µM
- Ki [2]: 491 µM
Molecule: CC(=O)Oc1c[nH]c2ccccc12 [INDOLE ACETATE]

B1: Solute carrier family 22 member 6 (Homo sapiens) (protein)
chain: MAFNDLLQQVGGVGRFQQIQVTLVVLPLLLMASHNTLQNFTAAIPTHHCRPPADANLSKNGGLEVWLPRDRQGQPESCLRFTSPQWGLPFLNGTEANGTGATEPCTDGWIYDNSTFPSTIVTEWDLVCSHRALRQLAQSLYMVGVLLGAMVFGYLADRLGRRKVLILNYLQTAVSGTCAAFAPNFPIYCAFRLLSGMALAGISLNCMTLNVEWMPIHTRACVGTLIGYVYSLGQFLLAGVAYAVPHWRHLQLLVSAPFFAFFIYSWFFIESARWHSSSGRLDLTLRALQRVARINGKREEGAKLSMEVLRASLQKELTMGKGQASAMELLRCPTLRHLFLCLSMLWFATSFAYYGLVMDLQGFGVSIYLIQVIFGAVDLPAKLVGFLVINSLGRRPAQMAALLLAGICILLNGVIPQDQSIVRTSLAVLGKGCLAASFNCIFLYTGELYPTMIRQTGMGMGSTMARVGSIVSPLVSMTAELYPSMPLFIYGAVPVAASAVTVLLPETLGQPLPDTVQDLESRWAPTQKEAGIYPRKGKQTRQQQEHQKYMVPLQASAQEKNGL
- Km [3]: 14 µM
- Km [4]: 141 µM

B2: Organic anion transporter 3 (Homo sapiens) (protein)
chain: MTFSEILDRVGSMGHFQFLHVAILGLPILNMANHNLLQIFTAATPVHHCRPPHNASTGPWVLPMGPNGKPERCLRFVHPPNASLPNDTQRAMEPCLDGWVYNSTKDSIVTEWDLVCNSNKLKEMAQSIFMAGILIGGLVLGDLSDRFGRRPILTCSYLLLAASGSGAAFSPTFPIYMVFRFLCGFGISGITLSTVILNVEWVPTRMRAIMSTALGYCYTFGQFILPGLAYAIPQWRWLQLTVSIPFFVFFLSSWWTPESIRWLVLSGKSSKALKILRRVAVFNGKKEEGERLSLEELKLNLQKEISLAKAKYTASDLFRIPMLRRMTFCLSLAWFATGFAYYSLAMGVEEFGVNLYILQIIFGGVDVPAKFITILSLSYLGRHTTQAAALLLAGGAILALTFVPLDLQTVRTVLAVFGKGCLSSSFSCLFLYTSELYPTVIRQTGMGVSNLWTRVGSMVSPLVKITGEVQPFIPNIIYGITALLGGSAALFLPETLNQPLPETIEDLENWSLRAKKPKQEPEVEKASQRIPLQPHGPGLGSS
- Km [5]: 263 µM
- Km [6]: 27 µM

B3: Organic anion transporter 3 (Rattus norvegicus) (protein)
chain: MTFSEILDRVGSMGPFQYLHVTLLALPVLGIANHNLLQIFTATTPVHHCRPPPNASIGPWVLPLDPNGKPEKCLRFVHLPNASLPNDTQRATEPCLDGWIYNSTRDTIVIEWDLVCSSNKLKEMAQSIFMAGILVGGPVIGELSDRFGRKPILTWSYLMLAASGSGAAFSPSLPVYMIFRFLCGCSISGISLSTVILNVEWVPTSMRAISSTSIGYCYTIGQFILSGLAYAIPQWRWLQLTSSAPFFIFSLLSWWVPESIRWLVLSGKYSKALKTLQRVATFNGKKEEGKKLTIEELKFNLQKDITSAKVKYGLSDLFRVSILRRVTFCLSLAWFSTGFAYYSLAMGVEEFGVNIYILQIIFGGVDIPAKFITILSLSYLGRRITQSFLLLLAGGAILALIFVPSEMQLLRTALAVFGKGCLSGSFSCLFLYTSELYPTVLRQTGMGISNVWARVGSMIAPLVKITGELQPFIPNVIFGTTALLGGSAAFFLLETLNRPLPETIEDIQNWHKQVQKTKQESEAEKASQIIPLKTGG
- Km [7]: 174 µM
- Km [8]: 11 µM

B4: Solute carrier family 22 member 6 (Rattus norvegicus) (protein)
chain: MAFNDLLKQVGGVGRFQLIQVTMVVAPLLLMASHNTLQNFTAAIPPHHCRPPANANLSKDGGLEAWLPLDKQGQPESCLRFTSPQWGPPFYNGTEANGTRVTEPCIDGWVYDNSTFPSTIVTEWNLVCSHRAFRQLAQSLYMVGVLLGAMVFGYLADRLGRRKVLILNYLQTAVSGTCAAYAPNYTVYCVFRLLSGMSLASIAINCMTLNVEWMPIHTRAYVGTLIGYVYSLGQFLLAGIAYAVPHWRHLQLVVSVPFFIAFIYSWFFIESARWYSSSGRLDLTLRALQRVARINGKQEEGAKLSIEVLRTSLQKELTLSKGQASAMELLRCPTLRHLFLCLSMLWFATSFAYYGLVMDLQGFGVSMYLIQVIFGAVDLPAKFVCFLVINSMGRRPAQMASLLLAGICILVNGIIPKSHTIIRTSLAVLGKGCLASSFNCIFLYTGELYPTVIRQTGLGMGSTMARVGSIVSPLVSMTAEFYPSMPLFIFGAVPVVASAVTALLPETLGQPLPDTVQDLKSRSRGKQNQQQQEQQKQMMPLQASTQEKNGL
- Km [9]: 28 µM
